The values below come from publication PMC3794860, “An RNA-Binding Complex Involved in Ribosome Biogenesis Contains a Protein with Homology to tRNA CCA-Adding Enzyme” (PLoS Biology, 2013).

The target of the assay is T1, Utp22 (S. cerevisiae, UniProt P53254 1-1237).
T1 construct: Utp22, yeast, 1,237 residues, amplified from yeast genomic DNA, cloned with no tag; Residues 1-80 and several internal loops are not visible in the crystal; A selenomethionine-labelled form was used for phasing; source: High Five insect cells, recombinant baculovirus, coexpressed with Rrp7, copurified (HisTrap, heparin, Superdex 200)
T1 sequence (looked up): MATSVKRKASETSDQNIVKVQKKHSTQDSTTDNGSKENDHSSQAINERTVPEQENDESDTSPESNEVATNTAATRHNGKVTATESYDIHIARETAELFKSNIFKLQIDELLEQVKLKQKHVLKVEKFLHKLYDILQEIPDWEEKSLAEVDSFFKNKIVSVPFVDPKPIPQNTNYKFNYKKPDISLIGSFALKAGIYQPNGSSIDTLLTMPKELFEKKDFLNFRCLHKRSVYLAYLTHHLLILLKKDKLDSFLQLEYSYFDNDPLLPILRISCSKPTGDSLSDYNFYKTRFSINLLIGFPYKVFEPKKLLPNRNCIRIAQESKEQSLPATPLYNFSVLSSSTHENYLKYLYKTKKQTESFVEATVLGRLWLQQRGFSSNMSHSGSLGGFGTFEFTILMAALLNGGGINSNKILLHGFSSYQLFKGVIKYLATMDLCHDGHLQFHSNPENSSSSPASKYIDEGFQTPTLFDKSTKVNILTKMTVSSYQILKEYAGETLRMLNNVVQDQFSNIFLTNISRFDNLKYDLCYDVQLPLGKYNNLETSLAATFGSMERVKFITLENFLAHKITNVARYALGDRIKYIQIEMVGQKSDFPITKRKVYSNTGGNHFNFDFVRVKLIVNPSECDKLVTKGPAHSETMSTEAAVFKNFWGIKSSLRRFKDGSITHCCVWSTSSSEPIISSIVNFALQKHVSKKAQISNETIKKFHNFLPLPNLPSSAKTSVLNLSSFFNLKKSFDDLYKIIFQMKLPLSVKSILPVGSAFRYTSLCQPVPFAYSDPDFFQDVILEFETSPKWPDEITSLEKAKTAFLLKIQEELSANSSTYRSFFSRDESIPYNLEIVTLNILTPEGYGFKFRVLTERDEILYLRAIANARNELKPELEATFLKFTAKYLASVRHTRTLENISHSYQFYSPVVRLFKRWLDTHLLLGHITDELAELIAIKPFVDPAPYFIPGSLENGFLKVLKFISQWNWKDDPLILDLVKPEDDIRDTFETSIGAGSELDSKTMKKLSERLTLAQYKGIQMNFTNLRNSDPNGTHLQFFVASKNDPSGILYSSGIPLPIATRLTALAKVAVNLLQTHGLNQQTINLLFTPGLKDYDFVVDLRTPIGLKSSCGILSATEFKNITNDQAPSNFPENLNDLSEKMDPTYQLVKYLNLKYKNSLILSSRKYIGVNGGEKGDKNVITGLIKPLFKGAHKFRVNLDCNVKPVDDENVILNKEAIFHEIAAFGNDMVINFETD
Put plainly: crystal structure; Utp22 and Rrp7 coexpressed in insect cells, copurified and cocrystallised; hanging drop, 20°C, 100 mM sodium cacodylate pH 6.2–6.5, 30% PEG 400, 200 mM lithium sulfate; refined to 1.97 Å. The settings on record: both partners purified.

B1: Rrp7 (natural protein, S. cerevisiae, UniProt P25368 1-297, looked up)
chain: MGIEDISAMKNGFIVVPFKLPDHKALPKSQEASLHFMFAKRHQSSNSNESDCLFLVNLPLLSNIEHMKKFVGQLCGKYDTVSHVEELLYNDEFGLHEVDLSALTSDLMSSTDVNEKRYTPRNTALLKFVDAASINNCWNALKKYSNLHAKHPNELFEWTYTTPSFTTFVNFYKPLDIDYLKEDIHTHMAIFEQREAQAQEDVQSSIVDEDGFTLVVGKNTKSLNSIRKKILNKNPLSKHENKAKPISNIDKKAKKDFYRFQVRERKKQEINQLLSKFKEDQERIKVMKAKRKFNPYT
notes: N-terminal His6-tag followed by a PreScission site, cleaved with PreScission protease; source: High Five insect cells, recombinant baculovirus, coexpressed with Utp22, copurified (HisTrap, heparin, Superdex 200); not shown: His6, N-terminal, cleaved
For the molecule B1, the binding result is on record as “binds”.
